Results published in the MegaScale stability set (Tsuboyama et al. 2023).

B1: EEHEE_rd4_0763 (parent)
chain: LTVHVGNVTYHFDNPEQAEEWAKRMAKKYQGQIHVKDGQFRIE
B2: EHEE_rd2_1257 (parent)
chain: EEERTFTNEEEARKAKKEAEKRGLRVTVTKDGTTWRVRIG

Variants of: B1
Experiment: folding stability dG (cDNA display proteolysis); higher = more stable
Conditions: PBS, room temperature

Variant | folding stability dG
Q17P | 0.493 kcal/mol
Q17I | 1.51 kcal/mol
T9K | 1.38 kcal/mol
T9C | 2.01 kcal/mol
T9D | 1.01 kcal/mol
V8W | 1.81 kcal/mol
V8T | 1.53 kcal/mol
V8F | 1.8 kcal/mol
V8A | 1.58 kcal/mol
E19F | 2.3 kcal/mol
E19A | 1.71 kcal/mol
E19N | 1.35 kcal/mol
N14Y | 1.43 kcal/mol
N14L | 1.59 kcal/mol
V35P | 0.636 kcal/mol
V35Y | 2.19 kcal/mol
V35I | 1.74 kcal/mol
V35K | 1.17 kcal/mol
V35W | 1.81 kcal/mol
G38F | 1.1 kcal/mol
G38Y | 0.909 kcal/mol
G38E | 1.07 kcal/mol
G38L | 1.18 kcal/mol
Q30P | 1.19 kcal/mol
Q30L | 1.39 kcal/mol
H4V | 1.97 kcal/mol

Variant | folding stability dG
H4T | 1.85 kcal/mol
E43Y | 1.71 kcal/mol
E43W | 1.55 kcal/mol
E43N | 1.06 kcal/mol
R24A | 1.68 kcal/mol
R24Y | 1.87 kcal/mol
H34N | 1.52 kcal/mol
H34L | 1.75 kcal/mol
R41I | 2.6 kcal/mol
R41V | 2.45 kcal/mol
R41N | 1.66 kcal/mol
R41Q | 1.66 kcal/mol
R41H | 2.48 kcal/mol
D13H | 1.37 kcal/mol
D13R | 1.47 kcal/mol
W21V | 0.517 kcal/mol
W21I | 0.395 kcal/mol
P15I | 1.78 kcal/mol
P15R | 1.88 kcal/mol
P15Q | 1.6 kcal/mol
P15D | 1.17 kcal/mol
P15G | 1.23 kcal/mol
I42R | 0.894 kcal/mol
I42M | 0.632 kcal/mol
I42P | 1.14 kcal/mol
I42L | 0.845 kcal/mol

Variant | folding stability dG
I42F | 1.02 kcal/mol
I42D | 1.17 kcal/mol
I42S | 1.06 kcal/mol
Q39R | 1.09 kcal/mol
Q39M | 1.36 kcal/mol
Q39V | 1.57 kcal/mol
G6F | 1.84 kcal/mol
G6E | 1.01 kcal/mol
A18M | 1.21 kcal/mol
A18K | 0.701 kcal/mol
A18I | 1.01 kcal/mol
A18E | 0.367 kcal/mol
Y29T | 1.12 kcal/mol
Y29S | 0.788 kcal/mol
Y29H | 1.32 kcal/mol
Y29A | 0.762 kcal/mol
Y29G | 0.732 kcal/mol
D37Y | 0.742 kcal/mol
G31M | 2.06 kcal/mol
G31L | 2.08 kcal/mol
G31N | 1.02 kcal/mol
G31I | 1.82 kcal/mol
G31P | 0.572 kcal/mol
K23D | 0.88 kcal/mol
K23Y | 1.62 kcal/mol
K23C | 2.37 kcal/mol

Variant | folding stability dG
K28H | 1.53 kcal/mol
K28F | 1.67 kcal/mol
L1S | 2.03 kcal/mol
L1R | 1.7 kcal/mol
L1P | 1.73 kcal/mol
L1V | 1.86 kcal/mol
E16V | 1.75 kcal/mol
K27N | 1.39 kcal/mol
K27D | 1.44 kcal/mol
M25G | 0 kcal/mol
M25A | 0.874 kcal/mol
F12P | -0.199 kcal/mol
F12H | 0 kcal/mol
F12T | -0.063 kcal/mol
A22I | 1.4 kcal/mol
A22Q | 0.611 kcal/mol
A22F | 1.23 kcal/mol
A22T | 0.746 kcal/mol
A22H | 0.665 kcal/mol
E20A | 1.87 kcal/mol
A26K | 0.73 kcal/mol
A26W | 1.28 kcal/mol
Y10H | 0.965 kcal/mol
Y10L | 0.997 kcal/mol
Y10P | 0.292 kcal/mol
Y10Q | 0.381 kcal/mol

Variant | folding stability dG
T2P | 0.538 kcal/mol
T2F | 1.58 kcal/mol
T2K | 1.41 kcal/mol
T2N | 1.14 kcal/mol
T2D | 1.22 kcal/mol
T2R | 1.48 kcal/mol
T2G | 0.823 kcal/mol
K36N | 1.49 kcal/mol
K36C | 2.46 kcal/mol
Q32I | 2.03 kcal/mol
Q32W | 1.21 kcal/mol
Q32F | 1.53 kcal/mol
V3W | 0.755 kcal/mol
V3I | 1.09 kcal/mol
V3R | 0.352 kcal/mol
V3F | 1.03 kcal/mol
V3A | 0.668 kcal/mol
V3P | 0.241 kcal/mol
F40W | 1.88 kcal/mol
F40K | 1.04 kcal/mol
H11N | 1.25 kcal/mol
H11K | 1.6 kcal/mol
N7C | 2.65 kcal/mol
N7L | 1.55 kcal/mol
N7Y | 1.62 kcal/mol

Variants of: B2
Experiment: as above
Conditions: PBS, room temperature

Variant | folding stability dG
T33P | 2.58 kcal/mol
T33D | 3.11 kcal/mol
T33R | 1.57 kcal/mol
T33A | 2.13 kcal/mol
T33F | 2.18 kcal/mol
T33Q | 2.27 kcal/mol
T33N | 2.63 kcal/mol
T33C | 2.5 kcal/mol
T33S | 2.15 kcal/mol
R38G | 0.853 kcal/mol
R38S | 1.93 kcal/mol
R38T | 2.33 kcal/mol
R38M | 2.04 kcal/mol
R38I | 2.59 kcal/mol
R38N | 1.71 kcal/mol
R38F | 2.23 kcal/mol
V26S | 0.809 kcal/mol
A19Q | 0.398 kcal/mol
A19E | 0.159 kcal/mol
A19Y | 2.37 kcal/mol
A19T | 0.176 kcal/mol
R4D | 0.771 kcal/mol
R4E | 1.37 kcal/mol
R4F | 2.97 kcal/mol
R4K | 1.97 kcal/mol
R4L | 2.8 kcal/mol

Variant | folding stability dG
R4P | 0.462 kcal/mol
R4W | 3.03 kcal/mol
L24S | 0.594 kcal/mol
L24M | 1.79 kcal/mol
L24I | 1.16 kcal/mol
L24G | 0.057 kcal/mol
E9M | 1.55 kcal/mol
E9A | 1.76 kcal/mol
E9L | 2.01 kcal/mol
E9H | 1.45 kcal/mol
E9Q | 1.58 kcal/mol
E9D | 0.502 kcal/mol
R22Q | 1.88 kcal/mol
R22F | 1.62 kcal/mol
R22E | 1.23 kcal/mol
R22L | 2.19 kcal/mol
R22S | 1.44 kcal/mol
R22I | 1.59 kcal/mol
E18T | 1.33 kcal/mol
E18G | 0.934 kcal/mol
E18F | 1.56 kcal/mol
E18N | 1.48 kcal/mol
E18I | 1.48 kcal/mol
E18Y | 1.59 kcal/mol
E18S | 1.4 kcal/mol
T5F | 2.19 kcal/mol

Variant | folding stability dG
T5W | 2.45 kcal/mol
T5D | 1.13 kcal/mol
T5S | 1.69 kcal/mol
T5P | 0.253 kcal/mol
T5Q | 1.6 kcal/mol
T5E | 1.65 kcal/mol
T5I | 2.56 kcal/mol
T5L | 2.11 kcal/mol
E10D | 2.01 kcal/mol
E10Y | 2.21 kcal/mol
E10Q | 2.03 kcal/mol
G23W | 0.38 kcal/mol
G23S | 0.399 kcal/mol
G23H | 0.993 kcal/mol
G23V | 0.034 kcal/mol
G23K | 0.384 kcal/mol
G23M | 0.537 kcal/mol
G23Q | 0.383 kcal/mol
G23Y | 0.68 kcal/mol
V28T | 0.613 kcal/mol
V28I | 2.71 kcal/mol
E2V | 2.3 kcal/mol
E2L | 2.26 kcal/mol
E2Y | 2.85 kcal/mol
E2I | 2.5 kcal/mol
E2M | 2.16 kcal/mol

Variant | folding stability dG
E2K | 1.73 kcal/mol
E2A | 1.75 kcal/mol
T29W | 2.6 kcal/mol
T29Y | 2.33 kcal/mol
T29C | 1.83 kcal/mol
T29A | 1.29 kcal/mol
T29V | 2.18 kcal/mol
T29K | 1.34 kcal/mol
T29I | 2.36 kcal/mol
T29H | 1.7 kcal/mol
T29M | 1.83 kcal/mol
G32Y | 0.01 kcal/mol
G32V | 0.363 kcal/mol
G32F | 0.011 kcal/mol
G32H | 0.713 kcal/mol
G32R | 0.337 kcal/mol
K14G | 1.49 kcal/mol
K14E | 2.19 kcal/mol
K14Q | 2.18 kcal/mol
K14Y | 2.02 kcal/mol
N8K | 1.5 kcal/mol
N8Q | 1.12 kcal/mol
N8W | 0.726 kcal/mol
N8S | 2.31 kcal/mol
N8L | 1.52 kcal/mol
N8A | 1.07 kcal/mol

Variant | folding stability dG
N8G | 0.865 kcal/mol
N8F | 1.09 kcal/mol
N8M | 1.18 kcal/mol
K30W | 3.02 kcal/mol
K30I | 1.66 kcal/mol
K30F | 3.53 kcal/mol
K30Y | 3.22 kcal/mol
K30G | 1.32 kcal/mol
D31S | 1.72 kcal/mol
D31C | 2.04 kcal/mol
D31V | 2.27 kcal/mol
K16V | 3 kcal/mol
K16T | 1.89 kcal/mol
K16I | 2.99 kcal/mol
G40L | 2.71 kcal/mol
G40M | 2.55 kcal/mol
G40D | 2.18 kcal/mol
G40R | 2.08 kcal/mol
G40H | 2.68 kcal/mol
G40S | 2.6 kcal/mol
E1N | 1.87 kcal/mol
E1G | 2.25 kcal/mol
E1Q | 1.94 kcal/mol
E1W | 3.19 kcal/mol
E1P | 2.07 kcal/mol
E1T | 2.19 kcal/mol

Variant | folding stability dG
R25S | 1.88 kcal/mol
R25A | 1.62 kcal/mol
R25V | 1.93 kcal/mol
R25W | 1.98 kcal/mol
R25N | 1.62 kcal/mol
F6V | 0.21 kcal/mol
F6L | 0.227 kcal/mol
F6W | 0.194 kcal/mol
W35D | -0.409 kcal/mol
W35K | -0.11 kcal/mol
W35F | 1.32 kcal/mol
K21Y | 1.82 kcal/mol
K21S | 2.38 kcal/mol
K21N | 2.06 kcal/mol
K21F | 1.89 kcal/mol
K21M | 2.45 kcal/mol
T7D | 2.25 kcal/mol
T7P | 1.69 kcal/mol
T7G | 1.68 kcal/mol
T7Q | 1.83 kcal/mol
T7N | 1.98 kcal/mol
T7H | 1.86 kcal/mol
T7W | 1.77 kcal/mol
E3M | 1.88 kcal/mol
E3T | 1.99 kcal/mol
E3H | 1.42 kcal/mol

Variant | folding stability dG
E3K | 0.758 kcal/mol
E3W | 2.3 kcal/mol
R36C | 1.91 kcal/mol
R36V | 2.78 kcal/mol
R36I | 3.03 kcal/mol
R36M | 1.65 kcal/mol
T27Y | 1.92 kcal/mol
T27I | 1.95 kcal/mol
T27D | 1.05 kcal/mol
T27M | 1.53 kcal/mol
T27E | 1.64 kcal/mol
A15W | 3.04 kcal/mol
A15K | 0.42 kcal/mol
A15M | 1.87 kcal/mol
A15G | -0.185 kcal/mol
I39K | -0.799 kcal/mol
I39R | -0.309 kcal/mol
T34Q | 1.97 kcal/mol
T34M | 2.37 kcal/mol
T34Y | 2.4 kcal/mol
T34H | 2.12 kcal/mol
T34L | 2.76 kcal/mol
T34D | 1.53 kcal/mol
T34A | 1.68 kcal/mol
E11G | 1.34 kcal/mol
E11F | 0.906 kcal/mol

Variant | folding stability dG
V37M | 1.61 kcal/mol
V37P | 0.556 kcal/mol
V37C | 1.05 kcal/mol
V37W | 0.056 kcal/mol
V37D | 0.331 kcal/mol
V37E | 0.078 kcal/mol
K17H | 2.24 kcal/mol
K17A | 2.47 kcal/mol
K17W | 2.39 kcal/mol
K17E | 2.7 kcal/mol
K17S | 2.19 kcal/mol
E20R | 1.11 kcal/mol
E20D | 0.837 kcal/mol
E20M | 1.66 kcal/mol
R13H | 2.19 kcal/mol
R13Y | 2.92 kcal/mol
R13K | 2.05 kcal/mol
R13S | 1.82 kcal/mol
R13Q | 2.32 kcal/mol
A12V | 1.51 kcal/mol
A12M | 2.08 kcal/mol
A12F | 1.54 kcal/mol
A12L | 0.876 kcal/mol
